The text below walks through data of patent US20200109188A1 (AstraZeneca / MedImmune, published 2020).

Test in all cases: cell-based or functional assay
Assay [1] has as its target HA of ca A/Sydney/5/97 (H3N2) virus (influenza A virus).
Assay [2] has as its target HA of A/Fort Monmouth/1/47 (H1N1) virus (influenza A virus).
Assay [3] deals with HA of ca A/Hong Kong/213/03 (H5N1) virus (influenza A virus).
For assay [4], the target named is HA of A/Kawasaki/9/86 (H1N1) virus (influenza A virus).
In assay [5] the target is HA of A/Wisconsin/67/05 (H3N2) virus (influenza A virus).
Assay [6] deals with HA of ca A/swine/Missouri/06 (H2N3) virus (influenza A virus).
The target in assay [7] is HA of H3-LA87 (A/Los Angeles/7/09 (H3N2)) virus (influenza A virus).
Assay [8] concerns the target HA of ca A/Netherlands/219/03 (H7N7) virus (influenza A virus).
For assay [9], the target named is HA of ca A/Panama/2007/99 (H3N2) virus (influenza A virus).
For assay [10], the target named is HA of A/Wyoming/03/03 (H3N2) virus (influenza A virus).
The target of assay [11] is HA of A/Hong Kong/8/68 (H3N2) virus (influenza A virus).
For assay [12], the target named is HA of A/New Jersey/8/76 (H1N1) virus (influenza A virus).
For assay [13], the target named is HA of ca A/Brit. Columbia/CN-6/04 (H7N3-LP) virus (influenza A virus).
The target of assay [14] is HA of A/Victoria/3/75 (H3N2) virus (influenza A virus, UniProt P03435 17-567).
Assay [15] has as its target HA of ca A/teal/Hong Kong/W312/97 (H6N1) virus (influenza A virus).
For assay [16], the target named is HA of ca A/New Caledonia/20/99 (H1N1) virus (influenza A virus).
The target in assay [17] is HA of ca A/Beijing/262/95 (H1N1) virus (influenza A virus).
Assay [18] deals with HA of ca A/Texas/36/91 (H1N1) virus (influenza A virus).
Assay [19] concerns the target HA of ca A/Vietnam/1203/04 (H5N1) virus (influenza A virus).
The target of assay [20] is HA of ca A/Perth/16/09 (H3N2) virus (influenza A virus).
The target of assay [21] is HA of ca A/chicken/Hong Kong/G9/97 (H9N2) virus (influenza A virus).

Positions count from the first letter of the chain named.

Chain of HA of A/Victoria/3/75 (H3N2) virus (P03435 17-567 limits assumed): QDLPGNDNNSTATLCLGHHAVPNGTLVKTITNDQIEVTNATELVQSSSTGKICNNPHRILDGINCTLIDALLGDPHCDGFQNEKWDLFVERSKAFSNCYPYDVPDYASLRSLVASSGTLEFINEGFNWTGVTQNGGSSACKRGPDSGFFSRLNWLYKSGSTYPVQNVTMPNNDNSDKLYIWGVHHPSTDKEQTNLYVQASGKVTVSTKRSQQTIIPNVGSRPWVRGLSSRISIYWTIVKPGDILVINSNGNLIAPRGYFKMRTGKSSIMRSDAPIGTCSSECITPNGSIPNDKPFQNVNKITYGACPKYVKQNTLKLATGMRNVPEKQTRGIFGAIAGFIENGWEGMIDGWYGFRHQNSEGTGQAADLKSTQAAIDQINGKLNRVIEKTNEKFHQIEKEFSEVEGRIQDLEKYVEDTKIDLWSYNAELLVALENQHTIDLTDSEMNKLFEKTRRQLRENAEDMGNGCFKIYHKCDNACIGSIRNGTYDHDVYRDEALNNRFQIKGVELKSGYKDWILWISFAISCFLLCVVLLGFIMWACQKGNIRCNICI

B1: Antibody 10 (antibody, V domains shown)
VH: QVQLQQSGPGLVKPSQTLSLTCAISGDSVSSNSATWNWIRQSPSRGLEWLGRTYYRSKWYNDYADFLKRRITINPDTSNNEVSLRLTSVTPDDTALYYCARGGHITVFGVNIDAFDVWGQGTMVTVSS
VL: DIQMTQSPSSLSASVGDRITISCRTSQSLRSYLHWYQQKPGKAPKLLIYASSTLQSGVPSRFSGSGSGTDFTLTISNLQPEDFATYYCQLSRTFGQGTKVEIK
Regarding B1, the “Neutralization IC50, H3-Syd97” value in [1] was determined as 9.29 µg/mL. Also, the “Neutralization IC50, H1-FM47” value in assay [2] amounted to 1.11 µg/mL. In addition, the “Neutralization IC50, H5-HK03” value in assay [3] was 1.6 µg/mL. In addition, in [4], the “Neutralization IC50, H1-Kaw86” value is 1.62 µg/mL. In addition, in assay [5], the “Neutralization IC50, H3-Wl05” value came to 4.46 µg/mL. Moreover, the “Neutralization IC50, H2-MO06” value in assay [6] worked out at 1.04 µg/mL. Besides, the “Neutralization IC50, H3-LA87” value in [7] came to 4.59 µg/mL. Besides, the “Neutralization IC50, H7-NLD03” value in assay [8] came to 3.8 µg/mL. In addition, the “Neutralization IC50, H3-Pa99” value in assay [9] was determined as 18.7 µg/mL. Further, in [10], the “Neutralization IC50, H3-Wy03” value came to 1.52 µg/mL. The “Neutralization IC50, H3-HK68” value in [11] is 0.85 µg/mL. Further, the “Neutralization IC50, H1-NJ76” value in assay [12] is 0.15 µg/mL. Besides, in [13], the “Neutralization IC50, H7-BC04” value is 3.59 µg/mL. Moreover, the “Neutralization IC50, H3-Vic75” value in [14] is 0.91 µg/mL. Further, in [15], the “Neutralization IC50, H6-HK97” value turned out to be 1.05 µg/mL. Moreover, in assay [16], the “Neutralization IC50, H1-Ncal99” value stood at 1.26 µg/mL. For the same molecule, in assay [17], the “Neutralization IC50, H1-BJ95” value turned out to be 4.46 µg/mL. The “Neutralization IC50, H1-TX91” value in assay [18] stood at 0.48 µg/mL. In addition, in [19], the “Neutralization IC50, H5-VM04” value turned out to be 2.21 µg/mL. For the same molecule, in assay [20], the “Neutralization IC50, H3-Perth09” value was 2.56 µg/mL. Moreover, in assay [21], the “Neutralization IC50, H9-HK97” value is 1.76 µg/mL.

B2: Antibody 8 (antibody, V domains shown)
VH: QVQLQQSGPGLVKPSQTLSLTCVISGDTVSSNRATWNWMRQSPLRGLEWLGRTYYRSKWYNDYAVSVKSRVVINPDTSKNQVSLQLNTVTPDDSGVYFCARGGHITVFGVNIDAFDIWGLGTKVTVSS
VL: DIQMTQSPSSLSASVGDRVTISCRASQRLNSYLHWYQQTPGQAPKLLIYATSTLQSGVSPRFSGSGSGTDFTLTISSLQPEDVATYYCQLSRTFGHGTKVEIK
B2: the “Neutralization IC50, H3-Syd97” value in assay [1] was > 50 µg/mL. Further, in assay [2], the “Neutralization IC50, H1-FM47” value was determined as 1.37 µg/mL. Moreover, the “Neutralization IC50, H5-HK03” value in assay [3] was found to be 1.82 µg/mL. The “Neutralization IC50, H1-Kaw86” value in assay [4] came to 2.11 µg/mL. The “Neutralization IC50, H3-Wl05” value in [5] is > 50 µg/mL. The “Neutralization IC50, H2-MO06” value in [6] turned out to be 2.62 µg/mL. In addition, in assay [7], the “Neutralization IC50, H3-LA87” value is > 50 µg/mL. Also, the “Neutralization IC50, H7-NLD03” value in assay [8] amounted to 12.8 µg/mL. Also, the “Neutralization IC50, H3-Pa99” value in assay [9] is > 50 µg/mL. For the same molecule, in assay [10], the “Neutralization IC50, H3-Wy03” value was > 50 µg/mL. The “Neutralization IC50, H3-HK68” value in [11] came out at 2.82 µg/mL. Also, in assay [12], the “Neutralization IC50, H1-NJ76” value was found to be 2.26 µg/mL. For the same molecule, in assay [13], the “Neutralization IC50, H7-BC04” value came out at 14.7 µg/mL. Further, the “Neutralization IC50, H3-Vic75” value in assay [14] was 3.83 µg/mL. In addition, the “Neutralization IC50, H6-HK97” value in assay [15] stood at 2.97 µg/mL. Also, the “Neutralization IC50, H1-Ncal99” value in assay [16] was 2.06 µg/mL. The “Neutralization IC50, H1-BJ95” value in assay [17] worked out at 10.6 µg/mL. In assay [18], the “Neutralization IC50, H1-TX91” value was 0.7 µg/mL. Moreover, the “Neutralization IC50, H5-VM04” value in [19] was 3.9 µg/mL. Moreover, in [20], the “Neutralization IC50, H3-Perth09” value is > 50 µg/mL. Besides, the “Neutralization IC50, H9-HK97” value in assay [21] came out at 26.4 µg/mL.

B3: Antibody 5 (antibody, V domains shown)
VH: QVQLQQSGPGLVKPSQTLSLTCAISGDRVSSNSAVWNWIRQSPSRGLEWLGRTYYRSKWYYDYAESVKSRIVIDPDTSKNQVSLQLNSVTPEDSAIYYCARGGHITVFGLNIDAYDIWGQGAMVTVSS
VL: DIQMTQSPSSLSASVGDRVTISCRAQSLSSYLHWYQQKPGQPPKLLIYAATTLQSGVPSRFSGSGSGTDFTLTISTFQAEDVATYYCQQSRTFGQGTKVEIK
On to B3, for which, in assay [1], the “Neutralization IC50, H3-Syd97” value worked out at 3.03 µg/mL. Also, in assay [2], the “Neutralization IC50, H1-FM47” value is 0.86 µg/mL. Also, the “Neutralization IC50, H5-HK03” value in assay [3] is 1.18 µg/mL. Moreover, the “Neutralization IC50, H1-Kaw86” value in assay [4] amounted to 1.01 µg/mL. Also, the “Neutralization IC50, H3-Wl05” value in assay [5] was 2.83 µg/mL. The “Neutralization IC50, H2-MO06” value in assay [6] worked out at 2.38 µg/mL. The “Neutralization IC50, H3-LA87” value in assay [7] is 3.54 µg/mL. The “Neutralization IC50, H7-NLD03” value in assay [8] is 4.14 µg/mL. The “Neutralization IC50, H3-Pa99” value in assay [9] came to 16.7 µg/mL. The “Neutralization IC50, H3-Wy03” value in assay [10] stood at 0.77 µg/mL. For the same molecule, the “Neutralization IC50, H3-HK68” value in [11] turned out to be 0.39 µg/mL. The “Neutralization IC50, H1-NJ76” value in assay [12] is 1.64 µg/mL. Besides, the “Neutralization IC50, H7-BC04” value in assay [13] came to 5.35 µg/mL. In addition, in assay [14], the “Neutralization IC50, H3-Vic75” value is 0.57 µg/mL. In assay [15], the “Neutralization IC50, H6-HK97” value is 2.27 µg/mL. Besides, the “Neutralization IC50, H1-Ncal99” value in assay [16] was determined as 0.85 µg/mL. Moreover, the “Neutralization IC50, H1-BJ95” value in assay [17] was 5.06 µg/mL. Besides, in assay [18], the “Neutralization IC50, H1-TX91” value came to 0.76 µg/mL. Moreover, the “Neutralization IC50, H5-VM04” value in assay [19] came out at 2.6 µg/mL. Besides, the “Neutralization IC50, H3-Perth09” value in [20] turned out to be 2.22 µg/mL. The “Neutralization IC50, H9-HK97” value in [21] turned out to be 2.43 µg/mL.

B4: Antibody 6 (antibody, V domains shown)
VH: B3 VH with V107E
VL: B3 VL
Take B4: the “Neutralization IC50, H3-Syd97” value in assay [1] was determined as 6.54 µg/mL. Moreover, the “Neutralization IC50, H1-FM47” value in assay [2] came out at 3.04 µg/mL. Further, the “Neutralization IC50, H5-HK03” value in [3] is 10.4 µg/mL. Besides, the “Neutralization IC50, H1-Kaw86” value in assay [4] came out at 3.51 µg/mL. Moreover, the “Neutralization IC50, H3-Wl05” value in assay [5] came to 6.76 µg/mL. Besides, the “Neutralization IC50, H2-MO06” value in assay [6] amounted to 2.9 µg/mL. In assay [7], the “Neutralization IC50, H3-LA87” value amounted to 12.6 µg/mL. In assay [8], the “Neutralization IC50, H7-NLD03” value was > 50 µg/mL. The “Neutralization IC50, H3-Pa99” value in [9] worked out at 25.8 µg/mL. Also, the “Neutralization IC50, H3-Wy03” value in [10] was 4.7 µg/mL. In addition, the “Neutralization IC50, H3-HK68” value in [11] came out at 2.04 µg/mL. Also, the “Neutralization IC50, H1-NJ76” value in assay [12] was 2.6 µg/mL. For the same molecule, the “Neutralization IC50, H7-BC04” value in [13] was > 50 µg/mL. Besides, in [14], the “Neutralization IC50, H3-Vic75” value is 1.09 µg/mL. Also, the “Neutralization IC50, H6-HK97” value in assay [15] is 3.23 µg/mL. For the same molecule, the “Neutralization IC50, H1-Ncal99” value in assay [16] worked out at 3 µg/mL. Further, the “Neutralization IC50, H1-BJ95” value in assay [17] was found to be 20.9 µg/mL. Further, in assay [18], the “Neutralization IC50, H1-TX91” value turned out to be 2.2 µg/mL. Besides, in [19], the “Neutralization IC50, H5-VM04” value worked out at 8.87 µg/mL. The “Neutralization IC50, H3-Perth09” value in assay [20] is 5.03 µg/mL. Besides, in assay [21], the “Neutralization IC50, H9-HK97” value worked out at 16.5 µg/mL.
